Tests used:
Assay in all cases: cell-based or functional assay
[1] = biological target: HIV-1 Env of pseudovirus 1012_11_TC21_3257 (HIV-1)
[2] = biological target: HIV-1 Env of pseudovirus 1054_07_TC4_1499 (HIV-1)
[3] = biological target: HIV-1 Env of pseudovirus 1394C9G1(Rev-) (HIV-1)
[4] = biological target: HIV-1 Env of pseudovirus 231965.c01 (HIV-1)
[5] = biological target: HIV-1 Env of pseudovirus 62357_14_D3_4589 (HIV-1)
[6] = biological target: HIV-1 Env of pseudovirus AC10.0.29 (HIV-1)
[7] = biological target: HIV-1 Env of pseudovirus BJOX009000.02.4 (HIV-1)
[8] = biological target: HIV-1 Env of pseudovirus BJOX015000.11.5 (HIV-1)
[9] = biological target: HIV-1 Env of pseudovirus BJOX028000.10.3 (HIV-1)
[10] = biological target: HIV-1 Env of pseudovirus CAAN5342.A2 (HIV-1)
[11] = biological target: HIV-1 Env of pseudovirus CNE20 (HIV-1)
[12] = biological target: HIV-1 Env of pseudovirus CNE52 (HIV-1)
[13] = biological target: HIV-1 Env of pseudovirus CNE53 (HIV-1)
[14] = biological target: HIV-1 Env of pseudovirus CNE58 (HIV-1)
[15] = biological target: HIV-1 Env of pseudovirus Ce0393_C3 (HIV-1)
[16] = biological target: HIV-1 Env of pseudovirus Ce1176_A3 (HIV-1)
[17] = biological target: HIV-1 Env of pseudovirus Ce2010_F5 (HIV-1)
[18] = biological target: HIV-1 Env of pseudovirus Ce2060_G9 (HIV-1)
[19] = biological target: HIV-1 Env of pseudovirus Du172.17 (HIV-1)
[20] = biological target: HIV-1 Env of pseudovirus Du422.1 (HIV-1)
[21] = biological target: HIV-1 Env of pseudovirus HIV-0013095-2.11 (HIV-1)
[22] = biological target: HIV-1 Env of pseudovirus HIV-16055-2.3 (HIV-1)
[23] = biological target: HIV-1 Env of pseudovirus P1981_C5_3 (HIV-1)
[24] = biological target: HIV-1 Env of pseudovirus Q769.d22 (HIV-1)
[25] = biological target: HIV-1 Env of pseudovirus Q842.d12 (HIV-1)
[26] = biological target: HIV-1 Env of pseudovirus T257-31 (HIV-1)
[27] = biological target: HIV-1 Env of pseudovirus TRO.11 (HIV-1)
[28] = biological target: HIV-1 Env of pseudovirus WEAU_d15_410_787 (HIV-1)
[29] = biological target: HIV-1 Env of pseudovirus X1254_c3 (HIV-1)
[30] = biological target: HIV-1 Env of pseudovirus X1632_S2_B10 (HIV-1)
[31] = biological target: HIV-1 Env of pseudovirus ZM109F.PB4 (HIV-1)
[32] = biological target: HIV-1 Env of pseudovirus ZM135M.PL10a (HIV-1)
[33] = biological target: HIV-1 Env of pseudovirus ZM197M.PB7 (HIV-1)
[34] = biological target: HIV-1 Env of pseudovirus ZM214M.PL15 (HIV-1)
[35] = biological target: HIV-1 Env of pseudovirus ZM233M.PB6 (HIV-1)
[36] = biological target: HIV-1 Env of pseudovirus ZM247v1(Rev-) (HIV-1)
[37] = biological target: HIV-1 Env of pseudovirus ZM53M.PB12 (HIV-1)

With PGT128 (antibody) the neutralization IC50 [1] was 0.011 µg/mL, the neutralization IC80 [1] was 0.033 µg/mL and the neutralization IC50 [2] was 0.035 µg/mL. For the same substance, the neutralization IC80 [2] was 0.312 µg/mL, the neutralization IC50 [3] was 0.011 µg/mL and the neutralization IC80 [3] was 0.034 µg/mL. The IC50 (Titer in TZM.bl cells) [4] was > 50 µg/mL, the IC80 (Titer in TZM.bl cells) [4] was > 50 µg/mL and the neutralization IC50 [5] was 1.14 µg/mL. The neutralization IC80 [5] was > 50 µg/mL, the neutralization IC50 [6] was 0.008 µg/mL and the neutralization IC80 [6] was 0.018 µg/mL. The IC50 (Titer in TZM.bl cells) [7] was < 0.001 µg/mL, the IC80 (Titer in TZM.bl cells) [7] was 0.005 µg/mL and the IC50 (Titer in TZM.bl cells) [8] was 0.001 µg/mL. It also gave an IC80 (Titer in TZM.bl cells) [8] of 0.011 µg/mL, an IC50 (Titer in TZM.bl cells) [9] of 0.024 µg/mL and an IC80 (Titer in TZM.bl cells) [9] of 0.07 µg/mL. For the same substance, the neutralization IC50 [10] was 0.514 µg/mL, the neutralization IC80 [10] was > 50 µg/mL and the neutralization IC50 [11] was 0.001 µg/mL. The neutralization IC80 [11] was 0.004 µg/mL, the neutralization IC50 [12] was > 50 µg/mL and the neutralization IC80 [12] was > 50 µg/mL. For the same substance, the neutralization IC50 [13] was 0.01 µg/mL, the neutralization IC80 [13] was 0.049 µg/mL and the neutralization IC50 [14] was 13.8 µg/mL. The neutralization IC80 [14] was > 50 µg/mL, the neutralization IC50 [15] was > 50 µg/mL and the neutralization IC80 [15] was > 50 µg/mL. For the same substance, the neutralization IC50 [16] was 0.009 µg/mL, the neutralization IC80 [16] was 0.026 µg/mL and the neutralization IC50 [17] was > 50 µg/mL. The neutralization IC80 [17] was > 50 µg/mL, the neutralization IC50 [18] was > 50 µg/mL and the neutralization IC80 [18] was > 50 µg/mL. For the same substance, the neutralization IC50 [19] was 0.028 µg/mL, the neutralization IC80 [19] was 0.08 µg/mL and the neutralization IC50 [20] was 0.039 µg/mL. The neutralization IC80 [20] was 0.113 µg/mL, the neutralization IC50 [21] was > 50 µg/mL and the neutralization IC80 [21] was > 50 µg/mL. The neutralization IC50 [22] was > 50 µg/mL, the neutralization IC80 [22] was > 50 µg/mL and the IC50 (Titer in TZM.bl cells) [23] was 0.019 µg/mL. The IC80 (Titer in TZM.bl cells) [23] was 0.088 µg/mL, the neutralization IC50 [24] was > 50 µg/mL and the neutralization IC80 [24] was > 50 µg/mL. For the same substance, the neutralization IC50 [25] was 0.008 µg/mL, the neutralization IC80 [25] was 0.102 µg/mL and the neutralization IC50 [26] was > 50 µg/mL. The neutralization IC80 [26] was > 50 µg/mL, the neutralization IC50 [27] was 0.019 µg/mL and the neutralization IC80 [27] was 0.045 µg/mL. The neutralization IC50 [28] was 0.032 µg/mL, the neutralization IC80 [28] was 0.153 µg/mL and the IC50 (Titer in TZM.bl cells) [29] was > 50 µg/mL. The IC80 (Titer in TZM.bl cells) [29] was > 50 µg/mL, the IC50 (Titer in TZM.bl cells) [30] was > 50 µg/mL and the IC80 (Titer in TZM.bl cells) [30] was > 50 µg/mL. The neutralization IC50 [31] was > 50 µg/mL, the neutralization IC80 [31] was > 50 µg/mL and the neutralization IC50 [32] was > 50 µg/mL. For the same substance, the neutralization IC80 [32] was > 50 µg/mL, the neutralization IC50 [33] was > 50 µg/mL and the neutralization IC80 [33] was > 50 µg/mL. The neutralization IC50 [34] was 1.5 µg/mL, the neutralization IC80 [34] was 29.4 µg/mL and the neutralization IC50 [35] was > 50 µg/mL. The neutralization IC80 [35] was > 50 µg/mL, the neutralization IC50 [36] was 0.021 µg/mL and the neutralization IC80 [36] was 0.081 µg/mL. The neutralization IC50 [37] was > 50 µg/mL and the neutralization IC80 [37] was > 50 µg/mL.

From patent US20240117018A1
